# Experimental data as given in paper PMC9482650, “Quantitative fragmentomics allow affinity mapping of interactomes” (Nature Communications, 2022).
# T1: NHERF3_3, Q5T2W1
# T1 sequence (Q5T2W1 238-333, limits assumed, looked up): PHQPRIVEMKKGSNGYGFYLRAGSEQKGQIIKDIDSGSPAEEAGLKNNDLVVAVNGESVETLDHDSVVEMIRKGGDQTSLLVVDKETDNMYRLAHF
# T2: PARD3B_1, Q8TEW8
# T2 sequence (Q8TEW8 196-299, limits assumed, looked up): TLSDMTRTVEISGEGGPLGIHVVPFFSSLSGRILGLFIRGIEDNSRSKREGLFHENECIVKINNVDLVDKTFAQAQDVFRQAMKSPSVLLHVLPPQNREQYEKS
# T3: SNTG2, Q9NY99
# T3 sequence (Q9NY99 68-166, limits assumed, looked up): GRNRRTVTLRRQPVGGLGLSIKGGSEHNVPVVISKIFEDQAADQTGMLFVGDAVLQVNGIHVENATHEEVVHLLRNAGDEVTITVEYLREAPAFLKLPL
# T4: SNTG1, Q9NSN8
# T4 sequence (Q9NSN8 52-150, limits assumed, looked up): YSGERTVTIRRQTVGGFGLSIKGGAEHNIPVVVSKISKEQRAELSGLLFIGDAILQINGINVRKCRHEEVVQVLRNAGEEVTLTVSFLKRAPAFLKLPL
# T5: NHERF3_1, Q5T2W1
# T5 sequence (Q5T2W1 4-100, limits assumed, looked up): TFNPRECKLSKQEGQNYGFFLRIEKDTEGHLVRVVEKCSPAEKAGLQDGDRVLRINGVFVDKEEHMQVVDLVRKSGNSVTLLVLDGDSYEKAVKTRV
# T6: LRRC7, Q96NW7
# T6 sequence (Q96NW7 1440-1537, limits assumed, looked up): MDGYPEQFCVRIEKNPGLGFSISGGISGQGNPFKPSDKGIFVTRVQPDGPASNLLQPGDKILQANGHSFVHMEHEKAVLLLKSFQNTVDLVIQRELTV
# T7: MPP6, Q9NZW5
# T7 sequence (Q9NZW5 125-219, limits assumed, looked up): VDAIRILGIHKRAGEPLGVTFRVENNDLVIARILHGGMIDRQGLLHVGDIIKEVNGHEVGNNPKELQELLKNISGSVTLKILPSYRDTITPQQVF
# T8: TIAM2, Q8IVF5
# T8 sequence (Q8IVF5 885-986, limits assumed, looked up): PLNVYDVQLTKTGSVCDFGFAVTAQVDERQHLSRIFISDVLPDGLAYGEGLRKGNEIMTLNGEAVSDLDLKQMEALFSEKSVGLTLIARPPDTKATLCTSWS
# B1: CRB2, Q5IJ48 (peptide)
# chain: LKVPPEERLI
# B2: TMEM225B, P0DP42 (peptide)
# chain: ETQVTAETVI
# B3: ABCC6, O95255 (peptide)
# chain: YRLAQESGLV
# B4: DACT1, Q9NYF0 (peptide)
# chain: SGSLKLMTTV
# B5: NOSTRIN, Q8IVI9 (peptide)
# chain: SNAGNTATKA
# Target: LAP2, Q96RT1
# Sequence (Q96RT1 other isoform, or with tags, fused parts or gaps): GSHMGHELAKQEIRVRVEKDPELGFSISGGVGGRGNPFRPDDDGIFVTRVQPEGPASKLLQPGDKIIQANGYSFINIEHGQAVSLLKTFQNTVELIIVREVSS
# Assay: holdup assay
# Design: key: below the threshold = too weak to quantify, mostly under pKd 3.1 to 4
# Settings: plain residues with an end cap or a label only (N-terminal biotin on a linker: ado-ado)
row,pKd,Binder
1,below the threshold,B1
2,below the threshold,B2
3,below the threshold,B3
4,below the threshold,B4
5,below the threshold,B5

# Target: TJP1_3, Q07157
# Sequence (Q07157 416-512): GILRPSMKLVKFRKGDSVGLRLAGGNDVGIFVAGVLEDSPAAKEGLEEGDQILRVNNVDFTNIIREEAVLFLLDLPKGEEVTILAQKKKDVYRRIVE
# Assay: holdup assay
# Design: key: below the threshold = too weak to quantify, mostly under pKd 3.1 to 4
# Settings: plain residues with an end cap or a label only (N-terminal biotin on a linker: ado-ado)
row,pKd,Binder
1,below the threshold,B1
2,below the threshold,B2
3,below the threshold,B3
4,below the threshold,B4
5,below the threshold,B5

# Target: DLG4_2, P78352
# Sequence (P78352 155-259): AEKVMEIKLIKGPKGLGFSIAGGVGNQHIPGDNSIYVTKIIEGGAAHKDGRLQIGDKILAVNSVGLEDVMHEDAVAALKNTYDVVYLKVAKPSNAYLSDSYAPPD
# Assay: holdup assay
# Design: key: below the threshold = too weak to quantify, mostly under pKd 3.1 to 4
# Settings: plain residues with an end cap or a label only (N-terminal biotin on a linker: ado-ado)
row,pKd,Binder
1,below the threshold,B1
2,4.05,B2
3,3.55,B3
4,5.22,B4
5,below the threshold,B5

# Target: LIMK2, P53671
# Sequence (P53671 143-248): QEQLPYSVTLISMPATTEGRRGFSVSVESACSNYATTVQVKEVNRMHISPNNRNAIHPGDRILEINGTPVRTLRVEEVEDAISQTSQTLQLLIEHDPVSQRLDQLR
# Assay: holdup assay
# Design: key: below the threshold = too weak to quantify, mostly under pKd 3.1 to 4
# Settings: plain residues with an end cap or a label only (N-terminal biotin on a linker: ado-ado)
row,pKd,Binder
1,below the threshold,B1
2,below the threshold,B2
3,below the threshold,B3
4,below the threshold,B4
5,below the threshold,B5

# Target: MAST2, Q6P0Q8
# Sequence (Q6P0Q8 1099-1202): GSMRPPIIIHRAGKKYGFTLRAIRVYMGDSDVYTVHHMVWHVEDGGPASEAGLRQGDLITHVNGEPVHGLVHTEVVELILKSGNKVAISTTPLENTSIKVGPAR
# Assay: holdup assay
# Design: key: below the threshold = too weak to quantify, mostly under pKd 3.1 to 4
# Settings: plain residues with an end cap or a label only (N-terminal biotin on a linker: ado-ado)
row,pKd,Binder
1,4.3,B1
2,5.12,B2
3,4.1,B3
4,5.36,B4
5,3.59,B5

# Target: T1, NHERF3_3, Q5T2W1
# Assay: holdup assay
# Design: key: below the threshold = too weak to quantify, mostly under pKd 3.1 to 4
# Settings: plain residues with an end cap or a label only (N-terminal biotin on a linker: ado-ado)
row,pKd,Binder
1,below the threshold,B1
2,below the threshold,B2
3,below the threshold,B3
4,below the threshold,B4
5,below the threshold,B5

# Target: ARHGEF12, Q9NZN5-2
# Sequence (Q9NZN5 other isoform, or with tags, fused parts or gaps): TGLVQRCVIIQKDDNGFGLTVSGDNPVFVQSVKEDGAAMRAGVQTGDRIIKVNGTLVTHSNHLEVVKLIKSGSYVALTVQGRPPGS
# Assay: holdup assay
# Design: key: below the threshold = too weak to quantify, mostly under pKd 3.1 to 4
# Settings: plain residues with an end cap or a label only (N-terminal biotin on a linker: ado-ado)
row,pKd,Binder
1,below the threshold,B1
2,3.84,B2
3,below the threshold,B3
4,4.62,B4
5,below the threshold,B5

# Target: Inadl_3, Q8NI35
# Sequence (Q8NI35 359-469): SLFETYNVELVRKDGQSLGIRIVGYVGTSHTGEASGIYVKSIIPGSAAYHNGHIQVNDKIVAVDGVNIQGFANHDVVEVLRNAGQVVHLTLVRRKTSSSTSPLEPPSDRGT
# Assay: holdup assay
# Design: key: below the threshold = too weak to quantify, mostly under pKd 3.1 to 4
# Settings: plain residues with an end cap or a label only (N-terminal biotin on a linker: ado-ado)
row,pKd,Binder
1,3.6,B1
2,4.26,B2
3,below the threshold,B3
4,below the threshold,B4
5,below the threshold,B5

# Target: GRASP, Q7Z6J2
# Sequence (Q7Z6J2 96-193): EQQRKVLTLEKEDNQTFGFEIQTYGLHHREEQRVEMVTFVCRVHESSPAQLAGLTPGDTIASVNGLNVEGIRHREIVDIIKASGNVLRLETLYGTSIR
# Assay: holdup assay
# Design: key: below the threshold = too weak to quantify, mostly under pKd 3.1 to 4
# Settings: plain residues with an end cap or a label only (N-terminal biotin on a linker: ado-ado)
row,pKd,Binder
1,below the threshold,B1
2,below the threshold,B2
3,below the threshold,B3
4,4.02,B4
5,below the threshold,B5

# Target: NHERF4_4, Q86UT5
# Sequence (Q86UT5 464-550): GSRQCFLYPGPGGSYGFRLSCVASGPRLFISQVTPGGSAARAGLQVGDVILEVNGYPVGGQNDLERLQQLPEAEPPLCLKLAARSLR
# Assay: holdup assay
# Design: key: below the threshold = too weak to quantify, mostly under pKd 3.1 to 4
# Settings: plain residues with an end cap or a label only (N-terminal biotin on a linker: ado-ado)
row,pKd,Binder
1,below the threshold,B1
2,below the threshold,B2
3,below the threshold,B3
4,below the threshold,B4
5,below the threshold,B5

# Target: T2, PARD3B_1, Q8TEW8
# Assay: holdup assay
# Design: key: below the threshold = too weak to quantify, mostly under pKd 3.1 to 4
# Settings: plain residues with an end cap or a label only (N-terminal biotin on a linker: ado-ado)
row,pKd,Binder
1,3.88,B1
2,4.18,B2
3,4.13,B3
4,below the threshold,B4
5,below the threshold,B5

# Target: SCRIB_3, Q14160
# Sequence (Q14160 999-1103): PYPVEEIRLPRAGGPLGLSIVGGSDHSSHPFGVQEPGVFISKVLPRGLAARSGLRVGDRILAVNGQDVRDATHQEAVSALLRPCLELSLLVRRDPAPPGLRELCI
# Assay: holdup assay
# Design: key: below the threshold = too weak to quantify, mostly under pKd 3.1 to 4
# Settings: plain residues with an end cap or a label only (N-terminal biotin on a linker: ado-ado)
row,pKd,Binder
1,3.75,B1
2,4.34,B2
3,below the threshold,B3
4,3.59,B4
5,below the threshold,B5

# Target: GRIP2_6, Q9C0E4
# Sequence (Q9C0E4 648-740): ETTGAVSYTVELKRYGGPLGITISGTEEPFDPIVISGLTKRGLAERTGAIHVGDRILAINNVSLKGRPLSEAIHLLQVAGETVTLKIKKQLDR
# Assay: holdup assay
# Design: key: below the threshold = too weak to quantify, mostly under pKd 3.1 to 4
# Settings: plain residues with an end cap or a label only (N-terminal biotin on a linker: ado-ado)
row,pKd,Binder
1,below the threshold,B1
2,below the threshold,B2
3,below the threshold,B3
4,below the threshold,B4
5,below the threshold,B5

# Target: PTPN3, P26045
# Sequence (P26045 505-587): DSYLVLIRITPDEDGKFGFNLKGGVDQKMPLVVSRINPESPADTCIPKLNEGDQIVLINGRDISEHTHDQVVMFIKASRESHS
# Assay: holdup assay
# Design: key: below the threshold = too weak to quantify, mostly under pKd 3.1 to 4
# Settings: plain residues with an end cap or a label only (N-terminal biotin on a linker: ado-ado)
row,pKd,Binder
1,below the threshold,B1
2,4.59,B2
3,3.87,B3
4,3.8,B4
5,3.87,B5

# Target: IL16_4, Q14005
# Sequence (Q14005 1229-1329): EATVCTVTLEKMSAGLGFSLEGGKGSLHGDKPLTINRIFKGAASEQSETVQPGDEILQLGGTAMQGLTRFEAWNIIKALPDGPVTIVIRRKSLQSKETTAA
# Assay: holdup assay
# Design: key: below the threshold = too weak to quantify, mostly under pKd 3.1 to 4
# Settings: plain residues with an end cap or a label only (N-terminal biotin on a linker: ado-ado)
row,pKd,Binder
1,below the threshold,B1
2,below the threshold,B2
3,below the threshold,B3
4,below the threshold,B4
5,below the threshold,B5

# Target: SCRIB_1, Q14160
# Sequence (Q14160 718-814): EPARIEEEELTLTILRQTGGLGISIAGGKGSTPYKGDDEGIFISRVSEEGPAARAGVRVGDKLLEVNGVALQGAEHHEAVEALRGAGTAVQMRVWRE
# Assay: holdup assay
# Design: key: below the threshold = too weak to quantify, mostly under pKd 3.1 to 4
# Settings: plain residues with an end cap or a label only (N-terminal biotin on a linker: ado-ado)
row,pKd,Binder
1,below the threshold,B1
2,4.24,B2
3,below the threshold,B3
4,3.98,B4
5,below the threshold,B5

# Target: PARD3_3, Q8TEW0
# Sequence (Q8TEW0 582-685): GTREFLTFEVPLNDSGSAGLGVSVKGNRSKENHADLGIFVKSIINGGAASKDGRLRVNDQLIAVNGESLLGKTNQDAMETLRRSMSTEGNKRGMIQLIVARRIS
# Assay: holdup assay
# Design: key: below the threshold = too weak to quantify, mostly under pKd 3.1 to 4
# Settings: plain residues with an end cap or a label only (N-terminal biotin on a linker: ado-ado)
row,pKd,Binder
1,3.85,B1
2,4.35,B2
3,below the threshold,B3
4,below the threshold,B4
5,below the threshold,B5

# Target: PICK1, Q9NRD5
# Sequence (Q9NRD5 17-115): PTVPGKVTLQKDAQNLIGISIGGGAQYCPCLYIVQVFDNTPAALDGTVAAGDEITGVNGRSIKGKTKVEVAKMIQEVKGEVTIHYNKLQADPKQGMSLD
# Assay: holdup assay
# Design: key: below the threshold = too weak to quantify, mostly under pKd 3.1 to 4
# Settings: plain residues with an end cap or a label only (N-terminal biotin on a linker: ado-ado)
row,pKd,Binder
1,below the threshold,B1
2,3.97,B2
3,4.19,B3
4,4.09,B4
5,below the threshold,B5

# Target: LDB3, O75112
# Sequence (O75112 1-94): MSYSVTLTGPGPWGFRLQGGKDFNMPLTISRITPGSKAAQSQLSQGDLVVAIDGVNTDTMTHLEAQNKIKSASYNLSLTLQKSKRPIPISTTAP
# Assay: holdup assay
# Design: key: below the threshold = too weak to quantify, mostly under pKd 3.1 to 4
# Settings: plain residues with an end cap or a label only (N-terminal biotin on a linker: ado-ado)
row,pKd,Binder
1,below the threshold,B1
2,below the threshold,B2
3,below the threshold,B3
4,below the threshold,B4
5,below the threshold,B5

# Target: DLG4_3, P78352
# Sequence (P78352 306-403): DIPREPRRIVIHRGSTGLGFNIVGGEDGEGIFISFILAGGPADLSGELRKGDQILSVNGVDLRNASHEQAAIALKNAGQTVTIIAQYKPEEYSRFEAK
# Assay: holdup assay
# Design: key: below the threshold = too weak to quantify, mostly under pKd 3.1 to 4
# Settings: plain residues with an end cap or a label only (N-terminal biotin on a linker: ado-ado)
row,pKd,Binder
1,below the threshold,B1
2,below the threshold,B2
3,below the threshold,B3
4,4.26,B4
5,3.5,B5

# Target: T3, SNTG2, Q9NY99
# Assay: holdup assay
# Design: key: below the threshold = too weak to quantify, mostly under pKd 3.1 to 4
# Settings: plain residues with an end cap or a label only (N-terminal biotin on a linker: ado-ado)
row,pKd,Binder
1,below the threshold,B1
2,4.15,B2
3,3.61,B3
4,3.66,B4
5,below the threshold,B5

# Target: T4, SNTG1, Q9NSN8
# Assay: holdup assay
# Design: key: below the threshold = too weak to quantify, mostly under pKd 3.1 to 4
# Settings: plain residues with an end cap or a label only (N-terminal biotin on a linker: ado-ado)
row,pKd,Binder
1,below the threshold,B1
2,3.9,B2
3,below the threshold,B3
4,below the threshold,B4
5,below the threshold,B5

# Target: DLG1_2, Q12959
# Sequence (Q12959 314-412): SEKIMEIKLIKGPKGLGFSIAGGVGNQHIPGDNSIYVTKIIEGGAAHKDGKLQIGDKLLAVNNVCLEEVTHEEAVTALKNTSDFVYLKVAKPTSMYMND
# Assay: holdup assay
# Design: key: below the threshold = too weak to quantify, mostly under pKd 3.1 to 4
# Settings: plain residues with an end cap or a label only (N-terminal biotin on a linker: ado-ado)
row,pKd,Binder
1,below the threshold,B1
2,4.37,B2
3,below the threshold,B3
4,5.54,B4
5,below the threshold,B5

# Target: DLG1_3, Q12959
# Sequence (Q12959 457-571): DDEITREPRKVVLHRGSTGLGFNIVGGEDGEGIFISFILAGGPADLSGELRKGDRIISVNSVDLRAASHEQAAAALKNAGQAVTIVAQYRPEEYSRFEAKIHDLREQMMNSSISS
# Assay: holdup assay
# Design: key: below the threshold = too weak to quantify, mostly under pKd 3.1 to 4
# Settings: plain residues with an end cap or a label only (N-terminal biotin on a linker: ado-ado)
row,pKd,Binder
1,below the threshold,B1
2,below the threshold,B2
3,below the threshold,B3
4,3.55,B4
5,below the threshold,B5

# Target: Inadl_1, Q8NI35
# Sequence (Q8NI35 113-229): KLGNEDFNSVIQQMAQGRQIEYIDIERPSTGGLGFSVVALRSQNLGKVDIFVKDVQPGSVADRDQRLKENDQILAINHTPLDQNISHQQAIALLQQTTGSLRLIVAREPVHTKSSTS
# Assay: holdup assay
# Design: key: below the threshold = too weak to quantify, mostly under pKd 3.1 to 4
# Settings: plain residues with an end cap or a label only (N-terminal biotin on a linker: ado-ado)
row,pKd,Binder
1,below the threshold,B1
2,below the threshold,B2
3,below the threshold,B3
4,below the threshold,B4
5,below the threshold,B5

# Target: T5, NHERF3_1, Q5T2W1
# Assay: holdup assay
# Design: key: below the threshold = too weak to quantify, mostly under pKd 3.1 to 4
# Settings: plain residues with an end cap or a label only (N-terminal biotin on a linker: ado-ado)
row,pKd,Binder
1,below the threshold,B1
2,4.68,B2
3,3.76,B3
4,below the threshold,B4
5,below the threshold,B5

# Target: IL16_1, Q14005
# Sequence (Q14005 210-306): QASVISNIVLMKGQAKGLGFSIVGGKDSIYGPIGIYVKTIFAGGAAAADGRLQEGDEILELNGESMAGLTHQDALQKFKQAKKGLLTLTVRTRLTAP
# Assay: holdup assay
# Design: key: below the threshold = too weak to quantify, mostly under pKd 3.1 to 4
# Settings: plain residues with an end cap or a label only (N-terminal biotin on a linker: ado-ado)
row,pKd,Binder
1,below the threshold,B1
2,below the threshold,B2
3,below the threshold,B3
4,below the threshold,B4
5,below the threshold,B5

# Target: T6, LRRC7, Q96NW7
# Assay: holdup assay
# Design: key: below the threshold = too weak to quantify, mostly under pKd 3.1 to 4
# Settings: plain residues with an end cap or a label only (N-terminal biotin on a linker: ado-ado)
row,pKd,Binder
1,below the threshold,B1
2,below the threshold,B2
3,below the threshold,B3
4,below the threshold,B4
5,below the threshold,B5

# Target: T7, MPP6, Q9NZW5
# Assay: holdup assay
# Design: key: below the threshold = too weak to quantify, mostly under pKd 3.1 to 4
# Settings: plain residues with an end cap or a label only (N-terminal biotin on a linker: ado-ado)
row,pKd,Binder
1,3.68,B1
2,below the threshold,B2
3,3.74,B3
4,below the threshold,B4
5,below the threshold,B5

# Target: T8, TIAM2, Q8IVF5
# Assay: holdup assay
# Design: key: below the threshold = too weak to quantify, mostly under pKd 3.1 to 4
# Settings: plain residues with an end cap or a label only (N-terminal biotin on a linker: ado-ado)
row,pKd,Binder
1,below the threshold,B1
2,3.79,B2
3,below the threshold,B3
4,below the threshold,B4
5,4.11,B5
